According to US20140315822A1:

Tests used:
[1] = molecular target: T1, PDZ domain of the human PTPN4 protein (human), P29074; assay: method not restated in the table; ITC per paragraph 50
T1 chain: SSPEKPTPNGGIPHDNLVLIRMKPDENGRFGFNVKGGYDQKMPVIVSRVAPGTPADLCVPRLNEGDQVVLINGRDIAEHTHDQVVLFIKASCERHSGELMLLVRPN

[2] = molecular target: T2, PDZ domain of the human MAST2 protein (human), Q6P0Q8
T2 chain: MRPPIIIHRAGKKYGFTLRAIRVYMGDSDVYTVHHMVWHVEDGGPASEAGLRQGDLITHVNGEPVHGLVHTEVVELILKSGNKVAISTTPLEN

## SWESHKSGGETRL (modifications not checked) [ATT13]
[1]
  Kd: 160 µM
[2]
  Kd: 0.57 µM
